In the DeepSol protein solubility set:

test: soluble on expression in E. coli; label from the status in PepcDB or PDB records

Soluble on expression in E. coli, not soluble:
MGSDKIHHHHHHMERMSIKYFVNNNSLGPDRNISSVGFEEIPPNTSYPTLNHSAGYYFNPDKGRILTEYQLIYITEGEGVLETRSGGVFTIKRGMIFVLFPGEWHTYYPNYQTGWSHYWIGFCGPEVDSWMTNEYCSKESPVFKVGINDEIVSLFRKAIDVANEEPTLYQRVLSGLVTYLVALMCSIDKNLQVENDDFSSKIDYACVLMKELIDQPVSMQEIAKKAGMGYSLFRKLFKEQKNYAPVQYFQNLKIQKAIELLTTTTIPVKEIAYRLDFESPAYFSARFKKQTGKSPIEYREEFRIK
MGSDKIHHHHHHMESITLTADLDALAKTSAFITAAAERCGLDERATWQVQLAVDEAVTNVIQHAYDPDQPGDFTLSWQCHDQRFIVTVRDHGRQFDPSTVPVPDITSPLEERQVGGLGIYLITRLMDEVHFEFSPQGGNLLTMVKYLPSDQAEEANEVVVIPINDRIDALTAPRLSKTVNEQISQGARQIVLDFSNVPFLSSSGLRALLLIRKELMTLGGELRLAALQPQVHEVFTITGFTQVFNIHPSVTEARAAFSQRR
MGSDKIHHHHHHMESTRRIYASPSYEVYGLSRNPFIELASEGIEDIESIHVYQEVDMRISSLISDVIGNRSSITLSIVGPLGMGKTQRLKSIARVIEDRGGKVIYIKVDTTDVLKITRDIFASLRPPKNRTNVFLENLSRKLGFITRLEKMLSSTDEYKSRDIAEMLTRELSKYQYSALLLDELENMRGATEKEKILFFEMLRHFISNMPPGCVFAFASIPEAYEEYSSQFPAFFMRLHYEFKLRPMSYQEIIELVKKRLAKVRIRDTADPLYPFTEDAIKLIHELGKGNPRQILRLLNYVLSEAVKHKFDPINEYVVTTILEEPKSLEEYIARIPSDFKDLVKVIVEKFEGGPVSYIQIAKELKIPGMEAYEKLEHLVSLGFLVGDPRGNYKVPDYVRKFLEEKGE
MGSDKIHHHHHHMETARHRNTWHIHPDPEALARRLAAAVARMAREAITARGAFHLVVAGGTTPRAAYALLPQLGSDWQCWHLYHGDERCLPPQDPDRNSLMLDTVWLSRVPIPTRQIHHIPAERGADVAARDYAAVLPPHAFDLVLLGVGEDGHTASLFPGHDWGMAKNGPATIAVHDAAKAPPQRVSLSGWRLQYTREMFFMAAGGGKRSALTAWRQGEPIPAATVGTTADIWLDNTAWPEVVPGTI
MGSDKIHHHHHHMETLRILHTNDLHSHFEHFPKIRRYLKQVQETAAADQVLTFDAGDFMDRSHPLSDATEGQANIRLMNDFHYDAITIGNNEGISNPHAVLERLFDHANFPVLLSNLREEDESWPAWANDYKIIKTKKGTRLALVGLTAAYPMTYGPNHWQIKMLGETMDRVLPEIAGQYDCLILLTHVGLRMDQWLAKHYPEIDLIVGGHSHTLLEKGVKEGRTWITQTDKWGNYVGDISLEIGDDHKIISIKPTTVPVADLPSQAGDEAEIAALYEEGQKMLQSRHVADLPEKFKDDKLAAIDVSLEAIADFAGTDLAMLSTGLFLTPFKGGLINQFDLQHALPHPMHVVRTTLLGRDLWRLVMEVEKNRHFLENYPLVGMSFRGKIFGQVYYRGIKYDPMTRNVFVNGQLLDPAEEYRIAVLDHYVLIPFFPTLAIVGENEFLFPQFLREVVGDYLGRKYPMKKEGE
MGSDKIHHHHHHMEVAAVDSLEALYKMVAKLYRRLSASARKRLLEGVELAAEKGDPALAYHRLSTLARDYYGDSLPYASDGYYKTYKHTRCVGLPEPTKVSGVDVLEAIRRRRSRRSFSRRPLTLTEVSTILFHVAGITGLAWWGGPKRPYPSAGALQPVEAYLVVERVEGLKPGLYHYNPSGHCLEMLREGKLLGRLADVSLGQDHVAEAAAALVLTAVYTRTGSKYGHRSYRYVHWDTGFAGENVYLVCEALGLATVAVGAFYDDEMCGFLEIDCPWEMPMLVFPVGARG
MGSDKIHHHHHHMEVLYRKYRPKTFSEVVNQDHVKKAIIGAIQKNSVAHGYIFAGPRGTGKTTLARILAKSLNCENRKGVEPCNSCRACREIDEGTFMDVIELDAASNRGIDEIRRIRDAVGYRPMEGKYKVYIIDEVHMLTKEAFNALLKTLEEPPSHVVFVLATTNLEKVPPTIISRCQVFEFRNIPDELIEKRLQEVAEAEGIEIDREALSFIAKRASGGLRDALTMLEQVWKFSEGKIDLETVHRALGLIPIQVVRDYVNAIFSGDVKRVFTVLDDVYYSGKDYEVLIQEAVEDLVEDLERERGVYQVSANDIVQVSRQLLNLLREIKFAEEKRLVCKVGSAYIATRFSTTNVQENDVREKNDNSNVQQKEEKKETVKAKEEKQEDSEFEKRFKELMEELKEKGDLSIFVALSLSEVQFDGEKVIISFDSSKAMHYELMKKKLPELENIFSRKLGKKVEVELRLMGKEETIEKVSQKILRLFEQEG
